Laboratory results published in patent US6514734.
Each block holds one substance with its values, some of them ahead of it.

Tests used:
[1] = target: glucose oxidase; experiment: glucose oxidase capture on discs with IgG polymer, illuminated against nonilluminated
[2] = target: glucose oxidase; experiment: polyester discs with IgG polymer, illuminated, washed; glucose oxidase at 0.1 mg/ml 1 h, washed; bound glucose oxidase read with glucose/HRP/TMB; n=5, SEM 0.059
[3] = target: glucose oxidase; experiment: polyester discs with IgG polymer, not illuminated, washed; glucose oxidase at 0.1 mg/ml 1 h, washed; bound glucose oxidase read with glucose/HRP/TMB; n=5, SEM 0.021
[4] = tested on: hirudin polymer (photoreactive polyacrylamide containing hirudin ligands)
[5] = target: bovine thrombin (bovine) (UniProt P00735); experiment: cell-based or functional assay
[6] = target: tritium labeled human thrombin (human) (UniProt P00734); experiment: 3H-thrombin binding, PE coated with 25 µg/cm^2 hirudin polymer against uncoated PE
[7] = target: tritium labeled human thrombin (human) (UniProt P00734); experiment: 3H-thrombin binding, PU coated with 25 µg/cm^2 hirudin polymer against uncoated PU
[8] = target: tritium labeled human thrombin (human) (UniProt P00734); experiment: 3H-thrombin at 2 µg/ml, 1 h, on PE coated with photoimmobilized hirudin polymer (25 µg/cm^2 added); scintillation counting
[9] = target: tritium labeled human thrombin (human) (UniProt P00734); experiment: 3H-thrombin at 2 µg/ml, 1 h, on PU coated with photoimmobilized hirudin polymer (25 µg/cm^2 added); scintillation counting
[10] = target: tritium labeled human thrombin (human) (UniProt P00734); experiment: 3H-thrombin at 2 µg/ml, 1 h, on PE coated with photoimmobilized hirudin polymer (1.0 µg/cm^2 added); scintillation counting
[11] = target: tritium labeled human thrombin (human) (UniProt P00734); experiment: 3H-thrombin at 2 µg/ml, 1 h, on PE coated with photoimmobilized hirudin polymer (5.0 µg/cm^2 added); scintillation counting
[12] = target: tritium labeled human thrombin (human) (UniProt P00734); experiment: 3H-thrombin at 2 µg/ml, 1 h, on PU coated with photoimmobilized hirudin polymer (1.0 µg/cm^2 added); scintillation counting
[13] = target: tritium labeled human thrombin (human) (UniProt P00734); experiment: 3H-thrombin at 2 µg/ml, 1 h, on PU coated with photoimmobilized hirudin polymer (5.0 µg/cm^2 added); scintillation counting
[14] = target: tritium labeled human thrombin (human) (UniProt P00734); experiment: 3H-thrombin at 2 µg/ml, 1 h, on SR coated with photoimmobilized hirudin polymer (1.0 µg/cm^2 added); scintillation counting
[15] = target: tritium labeled human thrombin (human) (UniProt P00734); experiment: 3H-thrombin at 2 µg/ml, 1 h, on SR coated with photoimmobilized hirudin polymer (5.0 µg/cm^2 added); scintillation counting
[16] = target: biotin derivatized horseradish peroxidase (horseradish) (UniProt P00433); experiment: biotin-HRP bound to glass rods, adsorbed against photoimmobilized streptavidin polymer
[17] = target: biotin derivatized horseradish peroxidase (horseradish) (UniProt P00433); experiment: glass rods with photoimmobilized streptavidin polymer, biotin-HRP at 9 µg/ml 1 h, washed, TMB peroxidase substrate; average of 3
[18] = target: biotin derivatized horseradish peroxidase (horseradish) (UniProt P00433); experiment: glass rods with adsorbed (nonilluminated) streptavidin polymer, biotin-HRP at 9 µg/ml 1 h, washed, TMB peroxidase substrate; average of 3

Sequence of biotin derivatized horseradish peroxidase (horseradish) (P00433 31-338): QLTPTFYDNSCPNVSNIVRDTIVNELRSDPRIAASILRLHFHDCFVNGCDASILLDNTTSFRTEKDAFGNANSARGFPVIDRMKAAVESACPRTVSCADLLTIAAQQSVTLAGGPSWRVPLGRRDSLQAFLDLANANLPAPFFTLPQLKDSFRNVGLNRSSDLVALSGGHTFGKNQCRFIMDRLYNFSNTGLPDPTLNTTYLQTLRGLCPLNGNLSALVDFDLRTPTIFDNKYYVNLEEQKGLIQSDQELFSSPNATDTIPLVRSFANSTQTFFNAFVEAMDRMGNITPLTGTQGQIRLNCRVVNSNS

percent greater activity, illuminated against nonilluminated [1]: 61%
IgG Activity (A655) [2]: 1.08 A655
IgG Activity (A655) [3]: 0.669 A655
Substance: IgG polymer (photoreactive polyacrylamide containing tritiated rabbit anti-glucose oxidase IgG ligands) (antibody)

specific activity (antithrombin units per mg of hirudin); remaining thrombin activity on chromogenic substrate Chromozym TH [5]: 10200 ATU/mg
fold greater thrombin binding than uncoated biomaterial [6]: 200 fold
fold greater thrombin binding than uncoated biomaterial [7]: 23 fold
Bound thrombin [8]: 0.2 µg/cm^2
Bound thrombin [9]: 0.28 µg/cm^2
Bound thrombin [10]: 0.02 µg/cm^2
Bound thrombin [11]: 0.014 µg/cm^2
Bound thrombin [12]: 0.028 µg/cm^2
Bound thrombin [13]: 0.137 µg/cm^2
Bound thrombin [14]: 0.004 µg/cm^2
Bound thrombin [15]: 0.047 µg/cm^2
Substance: hirudin polymer (photoreactive polyacrylamide containing hirudin ligands)

specific activity (antithrombin units per mg of hirudin); remaining thrombin activity on chromogenic substrate Chromozym TH [5]: 11700 ATU/mg
Substance: recombinant hirudin

Continued, substance first:

Substance: bovine thrombin
decrease in antithrombin activity after incorporation of hirudin into the polymer [4]: only a 13% decrease in its activity

Substance: streptavidin polymer (photoreactive polyacrylamide containing streptavidin ligands) (from UniProt P22629 37-163)
fold less peroxidase activity than covalent streptavidin polymer [16]: 3.5 fold
Absorbance of Biotin-HRP [17]: 1 absorbance
Absorbance of Biotin-HRP [18]: 0.285 absorbance
